B1: NEG258: CD19 antibody/binder; VH SEQ ID NO:13, VL SEQ ID NO:26 (antibody, V domains shown)
VH: QVQLVQSGAEVKKPGASVKVSCKASGYTFTTYWIQWVRQAPGQRLEWMGAVYPGDADTRYTQKFQGRVTLTADRSASTAYMELSSLRSEDTAVYYCGRDAGLEYYALDYWGQGTLVTVSS
VL: EIVMTQSPATLSVSPGERATLSCRASQDVGTAVAWYQQKPGQAPRLLIYWASTRHTGIPARFSGSGSGTEFTLTISSLQSEDFAVYFCQQYANFPLYTFGQGTKLEIK
B2: DAPASK-IgG1: anti-CD3 IgG1 with D265A/P329A/S267K (antibody)
heavy: EVQLVESGGGLVQPGGSLKLSCAASGFTFNTYAMNWVRQASGKGLEWVGRIRSKYNNYATYYADSVKDRFTISRDDSKSTLYLQMNSLKTEDTAVYYCVRHGNFGNSYVSWFAYWGQGTLVTVSSASTKGPSVFPLAPSSKSTSGGTAALGCLVKDYFPEPVTVSWNSGALTSGVHTFPAVLQSSGLYSLSSVVTVPSSSLGTQTYICNVNHKPSNTKVDKRVEPKSCDKTHTCPPCPAPELLGGPSVFLFPPKPKDTLMISRTPEVTCVVVAVKHEDPEVKFNWYVDGVEVHNAKTKPREEQYNSTYRVVSVLTVLHQDWLNGKEYKCKVSNKALAAPIEKTISKAKGQPREPQVYTLPPSRDELTKNQVSLTCLVKGFYPSDIAVEWESNGQPENNYKTTPPVLDSDGSFFLYSKLTVDKSRWQQGNVFSCSVMHEALHNHYTQKSLSLSPGK
light: QAVVTQEPSLTVSPGGTVTLTCRSSTGAVTTSNYANWVQQKPGQAPRGLIGGTNKRAPWTPARFSGSLLGDKAALTLSGAQPEDEAEYFCALWYSNLWVFGGGTKLTVLGQPKAAPSVTLFPPSSEELQANKATLVCLISDFYPGAVTVAWKADSSPVKAGVETTTPSKQSNNKYAASSYLSLTPEQWKSHRSYSCQVTHEGSTVEKTVAPTECS

Tests used:
[1] = tested on: cyno CD19; assay: Binding of TBMs to 300.19 cells overexpressing cyno CD19 (Example 11); conditions: flow cytometry, R variants
Experimental: (§1) The mouse cell line 300.19 was engineered to overexpress either human CD19 or cyno CD19. Cells were cultured in RPMI medium (Invitrogen #11875-093) with 10% FBS and 2-mercaptoethanol. Cells were harvested and resuspended in FACS buffer (PBS containing 1% FBS). 50,000 cells per well were plated in a V-bottom 96-well plate. Each cell line was incubated with serial dilutions of TBMs of Example 1A (i.e., R variants) for one hour on ice. Cells were centrifuged for 4 min at 400×g and washed with FACS buffer. This was repeated twice, and then the cells were incubated with Alexa-647 labeled anti-human Fc secondary antibody (Jackson Immuno #109-605-098) for 30 min on ice. The cells were washed twice, then resuspended in 100 μL of FACS buffer. FACS data was collected on a Beckman Coulter Cytoflex and analysis was performed using CytExpert v2.3.

[2] = molecular target: T1, human CD19 (Homo sapiens, UniProt P15391); assay: Binding of TBMs to 300.19 cells overexpressing human CD19 (Example 11); conditions: flow cytometry, R variants
T1 construct: expressed in transfected cells; host or cells: mouse cell line 300.19
T1 sequence (P15391 20-556): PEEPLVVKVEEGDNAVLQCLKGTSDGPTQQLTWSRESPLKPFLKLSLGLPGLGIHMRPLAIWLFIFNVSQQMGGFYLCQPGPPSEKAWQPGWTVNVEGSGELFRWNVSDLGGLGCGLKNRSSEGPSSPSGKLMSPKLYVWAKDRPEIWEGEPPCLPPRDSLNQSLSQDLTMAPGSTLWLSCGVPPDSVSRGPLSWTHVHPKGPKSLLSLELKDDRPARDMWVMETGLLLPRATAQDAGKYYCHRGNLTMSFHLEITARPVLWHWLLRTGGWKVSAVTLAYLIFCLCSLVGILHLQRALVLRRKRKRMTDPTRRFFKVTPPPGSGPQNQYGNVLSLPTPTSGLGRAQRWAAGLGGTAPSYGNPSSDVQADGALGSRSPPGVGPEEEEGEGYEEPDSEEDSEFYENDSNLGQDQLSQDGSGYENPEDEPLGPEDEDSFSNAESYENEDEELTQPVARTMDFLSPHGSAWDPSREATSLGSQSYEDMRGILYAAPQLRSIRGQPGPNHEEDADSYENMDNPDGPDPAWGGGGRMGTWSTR
Experimental: as §1

[3] = Differential scanning calorimetry, melting temperature of Fc modified anti-CD3 antibodies (Example 35); format: physicochemical; conditions: DSC, 1 mg/ml in PBS pH 7.4, anti-CD3 IgG1 Fc variants
Experimental: Calorimetric measurements were carried out on a differential scanning micro calorimeter (Nano DSC, TA instruments). The cell volume was 0.5 ml and the heating rate was 1° C./min. All proteins were used at a concentration of 1 mg/m in PBS (pH 7.4). The molar heat capacity of each protein was estimated by comparison with duplicate samples containing identical buffer from which the protein had been omitted. The partial molar heat capacities and melting curves were analyzed using standard procedure. Thermograms were baseline corrected and concentration normalized.

[4] = Aggregation propensity (% HMW) by analytical SEC of IgG1 anti-CD3 antibody and Fc variants (Example 35); format: physicochemical; conditions: PBS pH 7.4, anti-CD3 antibodies
Experimental: Size exclusion chromatography measurements were performed to evaluate the aggregation propensity (% HMW) of IgG1 antibody and Fc modified derivatives. The produced and purified anti CD3 antibodies were applied to an analytical size exclusion chromatography column (SEC 200, GE Healthcare), equilibrated with PBS buffer pH 7.4.

[5] = molecular target: human FcγR1A (Homo sapiens, UniProt P12314); assay: SPR binding of Fc modified anti-CD3 IgG1 antibodies (Example 34); conditions: anti-CD3 IgG1 antibody immobilized
Experimental: Surface plasmon resonance (SPR) experiments were performed to analyze the interaction of human activating receptors FcγR1A, FcγR3A (V158) and human C1q with IgG1 WT and antibody-Fc variants. Binding kinetics and their relative binding affinities were explored. The binding affinity is an important characteristic of an interaction between an antibody and an antigen. The equilibrium dissociation constant (KD) defines how strong the interaction is and therefore how much antibody-antigen complex is formed at equilibrium.
The knowledge of the antibody characteristics is not only essential during selection of the best therapeutic antibody candidate, but also important to understand the in vivo behavior and potentially predict cellular immune responses. […] Binding to human C1q was evaluated. […] SPR measurements were measured on a Biacore T200 (GE-Healthcare Life Sciences) controlled by Biacore T200 control software version 2.0.1. […]
The antibodies were covalently immobilized on a CM5 sensor chip whereas Fc gamma receptors or human C1q served as analytes in solution (FIG. 38). […] Zero concentration samples (blank runs) were measured for both methods to allow double-referencing during data evaluation.
Data were evaluated using the Biacore T200 evaluation software. […] In addition, the maximum response reached during the experiment was monitored. […]

Sequence of human FcγR1A (P12314 16-374): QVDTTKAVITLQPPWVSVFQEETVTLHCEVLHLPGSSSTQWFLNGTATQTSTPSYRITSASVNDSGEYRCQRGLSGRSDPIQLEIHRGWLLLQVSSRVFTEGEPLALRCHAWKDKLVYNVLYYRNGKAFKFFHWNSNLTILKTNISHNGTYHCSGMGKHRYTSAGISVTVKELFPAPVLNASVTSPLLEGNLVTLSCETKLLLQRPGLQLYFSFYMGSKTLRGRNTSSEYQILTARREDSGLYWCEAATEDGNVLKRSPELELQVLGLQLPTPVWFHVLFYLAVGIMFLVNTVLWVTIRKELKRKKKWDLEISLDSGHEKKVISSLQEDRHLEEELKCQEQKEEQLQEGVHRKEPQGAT

| Molecule | binding to cells overexpressing cyno CD19 [1] | binding to cells overexpressing human CD19 [2] | Melting temperature (Tm) of CH2 domain [3] | (%) higher molecular weight [4] | Maximum response at 100 nM hFcgammaRIA (RU) [5] |
| --- | --- | --- | --- | --- | --- |
| B1 | greater affinity for both human CD19 and cyno CD19 | greater affinity for both human CD19 and cyno CD19 |  |  |  |
| B2 |  |  | 65 °C | 3.6% | 13 RU |

Source: patent US20240025993A1, “CD19 BINDING MOLECULES AND USES THEREOF” (NOVARTIS AG, priority 2020, published 2024)
